Among the targets are HLA-A*68:01; HLA-A*03:01; HLA-A*33:01; HLA-A*31:01; HLA-A*11:01.
Experiment in all cases: IEDB peptide-MHC binding, purified MHC/competitive/radioactivity; filed as Kd, often an IC50 or EC50 that approximates it; ≥ and ≤ were set here for values at or beyond the usual limits of such assays
Where [1] appears, read: source organism: Vaccinia virus WR.
Where [2] appears, read: source organism: Mammarenavirus lassaense.
Setting [3] is: source organism: SARS coronavirus Tor2.
[4] abbreviates: source organism: Lymphocytic choriomeningitis virus (strain Armstrong).
Setting [5] is: source organism: Mammarenavirus whitewaterense.
Where [6] appears, read: source organism: Lassa virus Josiah.
Where [7] appears, read: source organism: Mammarenavirus guanaritoense.

pKd: −log10 of the molar value.

Usually pKd stands for the Kd on a negative log10 scale, so that one unit is a factor of ten.

For the sequence ITDNGPMPY, the pKd with HLA-A*68:01 (setting [1]) was 5.61; with HLA-A*03:01 (setting [1]), 5.30; in the experiment with HLA-A*33:01 (setting [1]), 5.80; in the experiment with HLA-A*31:01 (setting [1]), 5.92; with HLA-A*11:01 (setting [1]), 8.14.

Regarding ITFFQEVPH, the pKd in the experiment with HLA-A*68:01 (setting [2]) is 7.14; in the experiment with HLA-A*03:01 (setting [2]), 4.97; in the experiment with HLA-A*33:01 (setting [2]), ≤ 4.11; with HLA-A*31:01 (setting [2]) it was 5.09; with HLA-A*11:01 (setting [2]), 6.71.

ITPTIEDDK: the pKd with HLA-A*68:01 (setting [1]) was 6.28; with HLA-A*03:01 (setting [1]) it was ≤ 4.11; in the experiment with HLA-A*33:01 (setting [1]) it was ≤ 4.11; with HLA-A*31:01 (setting [1]) it was ≤ 4.11; with HLA-A*11:01 (setting [1]) it was 5.18.

IVPEFAKQY: the pKd in the experiment with HLA-A*68:01 (setting [1]) is 5.04; in the experiment with HLA-A*03:01 (setting [1]), ≤ 4.55; in the experiment with HLA-A*33:01 (setting [1]) it was ≤ 4.37; in the experiment with HLA-A*31:01 (setting [1]) it was ≤ 4.67; with HLA-A*11:01 (setting [1]) it was 4.93.

For IVTDLENRLK, the pKd with HLA-A*68:01 (setting [1]) is 6.51; in the experiment with HLA-A*03:01 (setting [1]), 7.60; in the experiment with HLA-A*33:01 (setting [1]) it was ≤ 4.57; with HLA-A*31:01 (setting [1]), 6.26; in the experiment with HLA-A*11:01 (setting [1]), 6.51.

Consider IVTFRERYSY, for which the pKd was 5.99 in the experiment with HLA-A*68:01 (setting [1]); 6.33 with HLA-A*03:01 (setting [1]); 4.84 in the experiment with HLA-A*33:01 (setting [1]); 6.71 with HLA-A*31:01 (setting [1]); 6.84 in the experiment with HLA-A*11:01 (setting [1]).

Take IVTVTTKDY: the pKd is 5.77 with HLA-A*68:01 (setting [1]); 5.71 with HLA-A*03:01 (setting [1]); 4.74 with HLA-A*33:01 (setting [1]); 5.05 in the experiment with HLA-A*31:01 (setting [1]); ≤ 4.49 with HLA-A*11:01 (setting [1]).

Turning to KAPNVISSK, the negative-log Kd (pKd) in the experiment with HLA-A*68:01 (setting [1]) was 6.81; with HLA-A*03:01 (setting [1]), 8.72; with HLA-A*33:01 (setting [1]) it was ≤ 4.65; in the experiment with HLA-A*31:01 (setting [1]), 6.76; with HLA-A*11:01 (setting [1]) it was 8.15.

Turning to KFYGPFVDR, the pKd is 5.49 in the experiment with HLA-A*68:01 (setting [3]); 5.11 in the experiment with HLA-A*03:01 (setting [3]); 5.69 with HLA-A*33:01 (setting [3]); 9.34 with HLA-A*31:01 (setting [3]); 5.85 with HLA-A*11:01 (setting [3]).

Regarding KLSSIKSKSR, the pKd is 4.73 in the experiment with HLA-A*68:01 (setting [1]); 6.29 in the experiment with HLA-A*03:01 (setting [1]); ≤ 4.56 with HLA-A*33:01 (setting [1]); 6.98 with HLA-A*31:01 (setting [1]); 5.00 with HLA-A*11:01 (setting [1]).

For the sequence KQIRSAAKK, the pKd with HLA-A*68:01 (setting [3]) is 5.88; in the experiment with HLA-A*03:01 (setting [3]), 7.37; with HLA-A*33:01 (setting [3]) it was ≤ 4.11; with HLA-A*31:01 (setting [3]), 5.97; with HLA-A*11:01 (setting [3]), 7.13.

Consider KQMYKTPTLK, for which the pKd with HLA-A*68:01 (setting [3]) was 5.09; in the experiment with HLA-A*03:01 (setting [3]) it was 8.64; with HLA-A*33:01 (setting [3]), 4.94; in the experiment with HLA-A*31:01 (setting [3]) it was 7.02; with HLA-A*11:01 (setting [3]) it was 7.76.

In the case of KTKISVEKIK, the pKd in the experiment with HLA-A*68:01 (setting [1]) is ≤ 4.61; in the experiment with HLA-A*03:01 (setting [1]), 5.38; in the experiment with HLA-A*33:01 (setting [1]), ≤ 4.15; in the experiment with HLA-A*31:01 (setting [1]), 6.09; in the experiment with HLA-A*11:01 (setting [1]) it was 6.56.

On to KVAGFAKFLK, for which the pKd with HLA-A*68:01 (setting [3]) is 7.93; with HLA-A*03:01 (setting [3]), 8.07; in the experiment with HLA-A*33:01 (setting [3]), 5.50; with HLA-A*31:01 (setting [3]), 7.50; with HLA-A*11:01 (setting [3]), 7.97.

On to KVILSEISFH, for which the pKd with HLA-A*68:01 (setting [4]) was 4.90; with HLA-A*03:01 (setting [4]) it was 5.86; with HLA-A*33:01 (setting [4]) it was 4.79; with HLA-A*31:01 (setting [4]), 5.68; with HLA-A*11:01 (setting [4]) it was 6.09.

Consider LFYVSSIFLH, for which the pKd is 6.01 in the experiment with HLA-A*68:01 (setting [5]); 5.22 in the experiment with HLA-A*03:01 (setting [5]); 7.13 with HLA-A*33:01 (setting [5]); 6.50 with HLA-A*31:01 (setting [5]); 5.65 with HLA-A*11:01 (setting [5]).

For the sequence LILCFTIKR, the pKd with HLA-A*68:01 (setting [3]) was 5.85; with HLA-A*03:01 (setting [3]), 5.85; with HLA-A*33:01 (setting [3]), 5.15; with HLA-A*31:01 (setting [3]) it was 5.05; with HLA-A*11:01 (setting [3]) it was 6.64.

LLHCVTESYK: the pKd with HLA-A*68:01 (setting [1]) is 7.63; with HLA-A*03:01 (setting [1]), 7.83; with HLA-A*33:01 (setting [1]), 5.49; in the experiment with HLA-A*31:01 (setting [1]) it was 6.68; with HLA-A*11:01 (setting [1]), 6.89.

As for LLRALRLTK, the pKd in the experiment with HLA-A*68:01 (setting [3]) was ≤ 4.22; in the experiment with HLA-A*03:01 (setting [3]), 7.61; in the experiment with HLA-A*33:01 (setting [3]), ≤ 4.62; with HLA-A*31:01 (setting [3]) it was 6.07; in the experiment with HLA-A*11:01 (setting [3]) it was 5.41.

As to LSCTKNNSHH, the pKd is ≤ 4.43 in the experiment with HLA-A*68:01 (setting [6]); ≤ 4.15 with HLA-A*03:01 (setting [6]); ≤ 4.15 with HLA-A*33:01 (setting [6]); ≤ 4.15 in the experiment with HLA-A*31:01 (setting [6]); ≤ 4.20 with HLA-A*11:01 (setting [6]).

Turning to LSSKGLACY, the pKd with HLA-A*68:01 (setting [1]) was 5.08; with HLA-A*03:01 (setting [1]), 6.11; with HLA-A*33:01 (setting [1]), ≤ 4.11; with HLA-A*31:01 (setting [1]) it was 4.88; with HLA-A*11:01 (setting [1]) it was 5.26.

Consider LSYVIGLLPH, for which the pKd in the experiment with HLA-A*68:01 (setting [7]) was ≤ 4.15; with HLA-A*03:01 (setting [7]), 5.65; in the experiment with HLA-A*33:01 (setting [7]) it was ≤ 4.15; in the experiment with HLA-A*31:01 (setting [7]), 5.05; with HLA-A*11:01 (setting [7]), ≤ 4.45.

Take LTQIFEVYWY: the pKd with HLA-A*68:01 (setting [1]) is 6.03; with HLA-A*03:01 (setting [1]), 6.00; in the experiment with HLA-A*33:01 (setting [1]), 5.90; with HLA-A*31:01 (setting [1]), 6.03; with HLA-A*11:01 (setting [1]), 6.46.

These data come from the Immune Epitope Database (IEDB).
